Biological target: T1, AspN-treated GDF11 (human, UniProt O95390 60-114; O95390 122-407, N-linked glycan at Asn-94, biotinylated through the glycan (Octet))
T1 construct: Full length GDF11 (ACE378) cleaved with endoproteinase AspN only; Glycopeptide 60-114 stays non-covalently associated with fragment 122-407, about 100 kDa by SEC; Minor fragments 60-117, 128-407, 133-407 and 25-114/117 were also detected; also called AspN digested GDF11; GDF11 Asp-N biotin sample
T1 sequence (peptide): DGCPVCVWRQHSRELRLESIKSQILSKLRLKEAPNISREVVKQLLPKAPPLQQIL
T1 sequence: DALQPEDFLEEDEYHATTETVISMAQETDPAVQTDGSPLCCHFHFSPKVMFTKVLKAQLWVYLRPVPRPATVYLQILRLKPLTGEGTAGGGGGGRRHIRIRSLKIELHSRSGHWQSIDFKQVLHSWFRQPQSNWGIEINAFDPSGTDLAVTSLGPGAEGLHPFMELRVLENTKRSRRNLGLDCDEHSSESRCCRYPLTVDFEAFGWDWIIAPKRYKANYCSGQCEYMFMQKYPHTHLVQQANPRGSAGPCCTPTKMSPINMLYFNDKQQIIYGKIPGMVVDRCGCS
Assay: Octet, biotinylated GDF11 sample captured on Streptavidin sensor, receptor-Fc in solution
Procedure: Following this treatment, GDF11 peptide 60-112/114 was in the supernatant and the rest of the protein precipitated and was in the pellet fraction. The specificity of labeling of GDF11 with biotin hydrazide was confirmed by Western blotting using Streptavidin Horseradish peroxidase for detection. Only full length GDF11 and glycopeptide 60-114 were detected and not the major fragments 122-407 or 299-407. Octet Binding Studies. Binding characteristics of the biotinylated samples were evaluated by Octet on an Octet RED System (FortéBio™, Menlo Park, Calif.) using Dip and Read™ Streptavidin (SA) Biosensors (FortéBio™). Samples were prepared in 5 mM NaH₂PO₄ pH 6.0, 150 mM NaCl, 0.005% Tween-20. […] The ability of biotinylated AspN/furin GDF11 to bind Type I and II receptors was also assessed by Octet using the same loading conditions, followed by treatment of the receptors at 10 μg/mL. […] The tips were washed for 1 min and dissociation monitored for 30 min in the presence of 20 μM free biotin. For secondary binding studies with the receptors, the tips were loaded with biotinylated GDF11 and controls, and washed as described above, then the receptor samples were loaded for 15 min and dissociation monitored for 5 min.
The binding characteristics of the GDF11 peptide 60-112/114 for mature GDF11 residues 299-407 and for AspN fragment residues 122-407 were assessed using an Octet Red system. […]

binding result: no binding
B1: Recombinant Human Activin RIB (ALK-4)-Fc chimeric protein (Fc fusion, UniProt P36896 24-126, looked up)
chain: SGPRGVQALLCACTSCLQANYTCETDGACMVSIFNLDGMEHHVRTCIPKVELVPAGKPFYCLSSEDLRNTHCCYTDYCNRIDLRVPSGHLKEPEHPSMWGPVE
notes: Bought from R&D systems; also called Activin RIB-Fc; Type I receptor; Fc part of the bought chimera not given

— patent US20220348623A1 (Biogen, published 2022)
